Results published in the nanobody polyreactivity screen of Harvey et al. (2022).

Assay: yeast display, Sf9 membrane polyspecificity reagent, FACS + sequencing; frameworks hold sequencing errors
Summary of the method: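 A synthetic nanobody library was expressed on Saccharomyces cerevisiae BJ5465 by galactose induction for 36–48 hours. The library was stained for 1 hour at 4 °C with 10% biotinylated, detergent-solubilized Sf9 membrane reagent and enriched with streptavidin microbeads before FACS. Low and high (top ~1%) gates were set on anti-HA fluorescence for expression and streptavidin fluorescence for reagent binding, and each polyreactivity label reflects the gate of origin.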

Sequence | polyreactivity (PSR sort gate)
QVQLVESVVGLVQAGVSLRLSCSASGFIFGRYAMGWYRQAPGKERELVADISWNGGSTYYADSVKGRFTISRDNAKNTVYLQMNSLKPEDTAVYYCAADYYWASFKYPYLRPYDYWGLGTQVTVSS | high polyreactivity
QVQLVESVGGLVQAGGTLRLSCAASGRIFCIYAMGWYRPAPGKVRSLVATITGSGGSTYYADSVKGRFTISRDNAKNTVYLQLHSLKPEDTAVYYCAARYPVSGGYDYWGQGNQVTVSS | low polyreactivity
QVQLVESGAGLVQAGVSLRLSCAASGSILTDSAMGWYIQAPGKERELVATISNGGSTNYADSVKGRFTISRDNAKNTVYLKMNSLKPEDTAVYYCNAEPGVPSWELDYWGQGTQVTVSS | low polyreactivity
QVQLVESGGGLVQAGGSLRLSCAASGSTFNRYAMGWYRQAPGTERELVAAISGRGGSTYYADSVKGRFTISRDNAKNTVYLQMNSLKPEDTAVYYCAKLSYLHGTAREFRFDYWGQGTQVTVSS | high polyreactivity
QVQLVESGGGLVQAGGSLRLSCAASGITFFENAMGWYRQAPGKERELVAAISYSGGNTYADSVKGRFTISRDNAKNTVYLQMNSLKPEDTAVYYCNADYAGWGEYDYWGQGTQVTVSS | low polyreactivity
QVQLVESGGGLVQAGGSLRLSCAASGSTFLRNAMRWYRQAPGKERELVAAISRSGGSTYYADSVKGRFTSSRDNAKNTVYLQMNSLKPEDTAVYYCAAVVKYRYSAYGGDYCGQGTQVTVSS | high polyreactivity
QVQLVESGGGLVQAGGSLRLSCAASGSIFVEYAMGVYREAPGKERELVATINLSAGSTYYADSVKGRFTISRDNAMNTGYLQMNRLKPEDTAVYYCAALYYWDQPQLEFSYLGQGTQVTVSS | low polyreactivity
QVQLVESGGGLVQAGGSLRLSCAASGFIFVKYAMGWYRQAPGKERELVAAITNGGSTYYADSVKGRFTISRDNAKNTVYLQMNSLKPEDTAVYYCAAQYHDWWRRLLYRSFLPFDYWGQGTQVTVSS | low polyreactivity
QVQLVESGGGLVQAGGSLRLSCAASGIIYAANPMGWYRQAPGKERELVAAISKNGGITYYADSVKGRFTISRDNAKNTVYLQMNSLKPEDTAVYYCAARWRQTRRYYYWGQGTQVTVSS | high polyreactivity
QVQLVESGGGLVQAGGSLRLSCAASGSTFRFYTMGWYRQAPGKERELVATITSGGSTNYADSVKGRFTISRDNAKNTVYLQMNSLKPEDTAVYYCAASSVLTNHDYWGQGTQVTVSS | low polyreactivity
QVQLVESGGGLVQAGGSLRLSCAASGLIFRWYAMGWYRQAPGKETELVAAINYSGGRTYYADSVKGRFTISRDNAKNTVYLQMNSLKPEDTAVYYCNAVAVPSTYDYWGQGTQVTVSS | low polyreactivity
QVQLVESGGGLVQAGGSLRLSCAASGSIFGSYAMGWYRQAPGKERELVAGITYRGSSTYYADSVKGRFTISRDNAKNTVYLQMNSLKPEDTAVYYCAADPVFDEYDYWGQGTQVTVSS | low polyreactivity
QVQLVESGGGLVQAGGSLRLSCAASGRIFARYAMGWYRQAPGKERELVAAISFRGGSTYYADSVKGRFTISRDNAKNTVYLQMNSQKPEDTAVYYCNGRYGRGGYDYWGQGTQVTVSS | high polyreactivity
QVQLVESGGGLVQAGGSLRLSCAASGLTFDVYTMGWYRQAPGKERELVATISETYYADSVKGRFTISRDNAKNTVYLQMNSLKPEDTAVYYCAANGFKAQYRDIVYDYGYWGQGTQVTVSS | low polyreactivity
QVHLVESGGGLVQAGGRLRLSCAASGGTFYYIAMGWYRQAPGKERELVAAISWSGVSTSYADTVKGRFTISRDNEKNTVYLQMNSLKPEDTAVYYCAAGPFYYTGFEGDYWGQGTQVTVSS | high polyreactivity
QVQLVESGGGLVQAGGSLRLSCAASGLIFTGYVMGWYRQAPGKERELVAVIRSGDSTYYADSVKGRFTISRDNAKNTVYLQMNSLKPEDTAVYYCAKYDTGGRAHDYWGQGTQVTVSS | low polyreactivity
QVQLVESGGVLVQAGGSLRLSCAAYGFSFNDYAMGWYRQAPGKERELVAAIDWSGGRTYYADSVKGRFTISRDNAKNTVYLQMNSLKPEDTAVYYCAAVLYSRLYWYRLDYWGQGTQVTVSS | low polyreactivity
QVQLVESGGGLVQAGGSLRLSCAASGRISYLYTMGWYRQAPGKERELVAAIRWRDGSTYYADSVKGRFTISRDNAKNTVYLQMNSLTPEDTAVYYCAATPVGFYWYDYWGQGTQVTVSS | low polyreactivity
QVQLVESGGGLVQAGGSLRLICAASGSIFVYNAMGSYRQAPAKERELVAAISQRGGSTYYADSVKGRFTISRDNAKNTVYLQMKSLKPEDTAVYYCAAGPGDSGDDYWGQGTQVTVSS | low polyreactivity
QVQLVESGGGLVQAGGSLRLSCASSGRTFTPYAMGWSTQAPGKERELVAAISRRAGTTYYADSVKGRFTISRDKAKNYGFLQMNRLKPEETEVYYCAALTESSSYGYWGQGTQVNVSS | low polyreactivity
QVQLVESGGGLVQAGGSLRLSCAASGRIFYGYVMGWYRQAPGKERELVAAITWSGSRTYYADSVKGRFTISRDNAKNTVYLQMNSLKPEDTAVYYCAARIPSDGYYYWGQGTQVTVSS | high polyreactivity
QVQLVESGGGLVQAGGSLRISCAASGSIFVKNAMGWYRQAPGKEREFVAAITTSGGSTNYADSVKGRFTISRDNAKNTVYLQMNSLKPEDTAVYYCNTDIFPAAYDYWGQGTQVTVSS | low polyreactivity

Sequence | polyreactivity (PSR sort gate)
QVQLEESGGGVVQAGGSLRLSCAASGGTFSRYAMGWYRQATGKERELVAAITRSGASTFYADSVKGRFTISRDNAKNTVYLQMNSLKPEDTAVYYCAADTYVYNEYDYWGQGTQVTVSS | high polyreactivity
QVQLQESDGGLVQAGGSLRLTCAASGSISPQYYMGWYRQAPGQEREFVAISKGTTTYYADSVKGRLTISRVNAKNTVYLQMNSLKPEDTAVYCCAAGRWLQKVHAYWDQGTQVTVSS | low polyreactivity
QVQHVESRGGLVQAGGSLRLSCAASGFTFYTNVMGWSRQAPGKERELVAAINSGGSTNYADSVKGRFTISRDNAKNTVYLQMNSLKAEDTAVYYCNKRGTEIGYDYWGQGTQVTVSS | low polyreactivity
QVQLVESGGGLVQAGGSLRLSCAASGRNFGAYAMGWYRPAPGKERELVAAITTAGSTHYADSVKGRFTISRDNAKNTVYLQMKSLKPQDTAVYYCAADGIARSYVLFDAYDFLYDYWGQGTQVTVSS | low polyreactivity
QVQLVESGGGLVQAGGSLRLSCAASGFIFSVNAMGWYRQAPGKERELVAAISTNTGRTYYADSVKGRFTISRDNAKNTVYLQMNSLKPEDTAVYYCAADGPTYWAVRGDYWGQGTQVTVSS | low polyreactivity
QVQLVESGGGLVQAGGSLRLSCAASGRTFFTNAMGWSRQAPGKERELVATISQSGGSTYYADSVKGRFTISRDNAKNTVYLQMNCLKPEDTAVYYCAALSRYWVVRMDYWGQGTHVTVSS | high polyreactivity
QVQLVESGGGLVQAGGSLRLSCAASGAIFDSNAMGWYREAPGTERELVASIDRGGDTNYADSVKGRFTISRDNAKNTVYLQMNSLKPEDTAVYYCAAYYYKWVWIGMDYWGQGTQVTVSS | low polyreactivity
QVQLVESGGGLVQAGGSLRLSCAASGSIFSAYAMGWYRQAPGKERELVAAISYGGGSTYYADSVKGRFTISRDNAKNTVYLQMNSLKAEDTAVYYCAAASSGEYGYWGQGTQVTVSS | low polyreactivity
QVQHVESGGGIVHAGGSLRLSCAASGSIFTRYTMGWDRMATGKERELVAVISDSSGRTYYADSVKGRFTISRDNAKNTFYLQLNSLKPADTAVYYCAAEYSDIYEYWGQGTQVTVSS | low polyreactivity
QVQLVESGGGLVQAGGSLRISCAASGIIFAYAMGWYRQAPGKERELVAAISGRDGSTYYADSVKGRFTISRDNAKNTVYLQMISLKQEDTAVYFCAAGDYYLQDNYWGQGTQVTVSS | low polyreactivity
QVQLVESGGGLVQAGGSLRLSCAASGRTFFKNAMGWYRQAPGKERELVAAITSSGGTTYYADSVKGRFTISRDNAKNTVYLQMISLKPEDTAVYYCATRKYPIRYGYGYWGQGTQVTVSS | high polyreactivity
QVQLVESGGGLVQAGGSLRLSCAASGRIVYIYAMGWYRQAPGKERELVAAISSGGTTNYADSVKGRFTISRDNAKNTVYLQMNSLKPEDTAVYYCAAYWRSRNRFYWGQGTQVTVSS | high polyreactivity
QVQLVESGGGLVQAGGSLRLSCAASGIIFGYYAMGWYRQAPGKERELVAAISRSGGRTYYADSVKGRFTISRDNAKNTVYLQMNSLKPEDTAVYYCATVTNSKRGFDYWGQGTQVTVLS | high polyreactivity
QVQLVESGGGLVQAGGSLRLSCAASGSTIYTYAMGWSRQAPGKERELVAAINRSGGTTYYADSVKGRFTISRDNAKNTVYLQMNSLKPEDTADYYCARRRYGYDYWGQGTQVTVSS | high polyreactivity
QVQLVESGGGLVQAGGSLRLSCAASGSIFVYYTMGWYRQAPGKERELVAAISISGTSTYYADSVKGRFTISRDNAKNTVYLQMNSLKPEDTAVYYCAADTYYGEDYWGQGTQVTVSS | low polyreactivity
QVQLVESGGGLVQAGGSLRLSCAASGRTFKSYSMGWYRQAPGKERELVAAISWSGGSTYYADSVKGRFTISRDNAKNTVYLQMNSLKPEDTAVYYCAKRGYASGSKWDYGYWGQGTQVTVSS | high polyreactivity
QVQLVESGGGLVQAGGSLRLSCAASGFISDVYAMGWYRQAPGKERELVAVITWRGSTYYADSVKGRFTISRDNAKNTVYLQMNSLKPEDTAFYYCAAESQGDWAFDYWGQGTQVTVSS | low polyreactivity
QLQLVESGGGLVQAGGSLRLSCAASGSIFTWYAMGWYRQAPGKERELVAAITRGGSTYADSVKGRFTISRDNAKNTVNLQMNSLKPEDTAVYYCNAVYGVYDFNYWGQGTQVTGSS | low polyreactivity
QVQLVESGGGLVQAGGSLRLSCAASGSIFDYYTMGWYRQAPGKERELVATIRSGDSTNYADSVKGRFTISRDNAKNTVYLQMNSLIPEDTAVYYCAADDGAYPTLYDYWGQGTQVTVST | low polyreactivity
QVQLVESGGGLVQAGGSLRLSCAASGSILWHNAMGCYRQAPGKEREFVAAISARGTRTYYADSVKGRFTISRDNAKITVYLQMNSLKPEDTAVDYCAARYWDDRARAEDYWGQGTQVTVSS | high polyreactivity
QDQLVESGGGLVQAGGSLRLSCAASGRNFSFNPMGLYRQAPGKERELVATIRTDGTTNYADSVKGRFTISRDNAKNTVYVQMNSLKPEDTAVYYCAADSAYHRRRMYYWGQGTQVTVSS | high polyreactivity
